Reference: PMC5036006

Assays:
Experiment in all cases: co-immunoprecipitation from transfected HEK293T
Conditions in all cases: reference: wild-type parafibromin; sites Y290,Y293,Y315
β-catenin = β-catenin (UniProt P35222)
[1] = molecular target: Notch intracellular domain (NICD) intracellular domain, 1744-2183 (UniProt Q01705)
Gli1 = Gli1 (UniProt P08151)

binding against the reference (β-catenin): stronger
binding against the reference [1]: stronger
binding against the reference (Gli1): stronger
Substance: parafibromin (from UniProt Q6P1J9) PR-parafibromin Y290/293/315F
